What was measured:
Assay in all cases: FP
Conditions in all cases: tags: His6 (pET15b, E. coli BL21(DE3)); label: FAM
[1] = target: eIF4A2 (UniProt P10630 P10630:1-407)
Method: (§1) FIGS. 17A-17F. Assessment of eIF4A1 and eIF4A2 RNA binding specificity. 17A. Chemical structure of the most commonly used rocaglates in biological studies 17B. Coomassie blue staining of SDS-PAGE showing eIF4A1 and eIF4A2 preparations used herein. 17C. eIF4A1 and eIF4A2 have similar RNA binding specificities. eIF4A1 or eIF4A2 (500 nM) were incubated in the presence of FAM-labelled RNA (10 nM) having the indicated sequence composition for 30 mins, after which FP measurements were taken. The change in FP obtained relative to vehicle controls is presented. n=3 SD. 17D. Binding of eIF4A1 and eIF4A2 to RNA is equally responsive to CR-1-31-B (23). FAM labeled poly r(AG)₈ (SEQ ID NO: 2) (10 nM) was mixed with the indicated concentrations of eIF4A1 or eIF4A2 either in the presence of vehicle (DMSO) or […] CR-1-31-B(23). Reactions were equilibrated at RT for 30 minutes prior to measuring light polarization. n=3 SD. 17E. […] FAM-labelled RNA was incubated in the presence of 500 nM eIF4A1 and the indicated concentration of CR-1-31-B (23) for 30 min, after which time FP measurements were obtained. The change in FP relative to vehicle controls is presented. n=3±SD. 17F. The extent of eIF4A-RNA binding stimulated by CR-1-31-B 23 scales with polypurine content. FAM-labelled RNA was incubated with 500 nM eIF4A1 and the indicated concentration of CR-1-31-B (23) for 30 min, after which time FP measurements were obtained. The change in FP obtained relative to vehicle controls is presented. n=3 SD.

[2] = target: T1, eIF4A1 (UniProt P60843 P60843:1-406)
Method: FAM-labelled RNA was incubated in the presence of 500 nM eIF4A1 and the indicated concentration of CR-1-31-B for 30 min, after which time FP measurements were obtained. The change in FP relative to vehicle controls is presented. n=3 SD.
as §1, with “The extent of eIF4A-RNA binding stimulated by CR-1-31-B 23 scales with polypurine content. FAM-labelled RNA was incubated with 500 nM eIF4A1 and the indicated concentration of CR-1-31-B (23) for 30 min, after which time FP measurements were obtained. The change in FP obtained relative to vehicle controls is presented. n=3 SD.” left out

[3] = target: T1, eIF4A1; remark: listed apart in the source
Method: as §1

Chain of eIF4A2 (P10630 whole entry, one chain of several): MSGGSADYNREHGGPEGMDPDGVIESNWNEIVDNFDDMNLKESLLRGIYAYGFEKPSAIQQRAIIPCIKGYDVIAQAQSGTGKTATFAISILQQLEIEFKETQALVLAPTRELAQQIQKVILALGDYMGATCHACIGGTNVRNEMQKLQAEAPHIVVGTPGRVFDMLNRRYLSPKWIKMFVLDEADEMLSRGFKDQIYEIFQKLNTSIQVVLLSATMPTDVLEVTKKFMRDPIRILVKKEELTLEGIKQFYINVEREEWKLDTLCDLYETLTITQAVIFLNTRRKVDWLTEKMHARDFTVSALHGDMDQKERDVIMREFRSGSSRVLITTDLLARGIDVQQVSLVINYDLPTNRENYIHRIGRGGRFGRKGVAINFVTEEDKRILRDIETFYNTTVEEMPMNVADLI
T1 sequence (P60843 whole entry, one chain of several): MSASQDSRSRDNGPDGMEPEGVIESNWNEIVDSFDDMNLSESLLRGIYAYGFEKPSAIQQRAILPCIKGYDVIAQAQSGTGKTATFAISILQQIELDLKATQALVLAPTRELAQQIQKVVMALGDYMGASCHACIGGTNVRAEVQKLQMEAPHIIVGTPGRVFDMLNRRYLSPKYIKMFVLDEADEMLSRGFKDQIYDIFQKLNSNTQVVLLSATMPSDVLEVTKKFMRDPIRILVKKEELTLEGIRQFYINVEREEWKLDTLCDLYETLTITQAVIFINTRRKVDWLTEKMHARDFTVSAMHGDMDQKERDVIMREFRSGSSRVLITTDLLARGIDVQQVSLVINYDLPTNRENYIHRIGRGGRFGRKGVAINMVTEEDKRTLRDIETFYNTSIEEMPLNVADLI

Binder | binding result [1] | binding result [2] | binding result [3]
AGAGAGAGAGAGAGAG (ssRNA) [poly r(AG)8] | binds | binds | –
AGAAGAAGAAGAAGAA (ssRNA) [r(A(GAA)5)] | binds | – | binds

From US20200392147, “AMIDINO- AND AMINO-ROCAGLATES AS NOVEL TRANSLATION INHIBITORS AND ANTICANCER AGENTS” (TRUSTEES OF BOSTON UNIVERSITY, published 2020)
